In article PMC7611338 (Current biology : CB, 2021):

Target: the molecule itself
Test: fluorescence correlation spectroscopy

B1: dE-cad^WT::GFP (Drosophila E-cadherin, wild type, GFP-tagged) (natural protein)
chain: PGQSYAIIVRAYNVVPDPPQDAQIEVRIRVVESSIKPPSFVNPIDTPIYLKENLKNFTHPIATLRAVSNMPDKPEVIFELNTGRTEQTNSKNTFVFNQIGNEVTISLGKTLDYEAITDYTLTMIVRNTHELGTEHQIKIQVEDVNDNIPYYTEVKSGTILENEPPGTPVMQVRAFDMDGTSANNIVSFELADNREYFTIDPNTGNITALTTFDREERDFYNVKVIASDNSPSSLFDNGEPNRGHQVFRISIGDKNDHKPHFQQDKYLAERLLEDANTNTEVIEVKAEDEDNASQILYSIESGNVGDAFKIGLKTGKITVNQKLDYETITEYELKVRAFDGIYDDYTTVVIKIEDVNDNPPVFKQDYSVTILEETTYDDCILTVEAYDPDIKDRNADQHIVYSIHQNDGNRWTIDNSGCLRLVKTLDRDPPNGHKNWQVLIKANDEDGVGTTVSTVKEVTVTLKDINDNAPFLINEMPVYWQENRNPGHVVQLQANDYDDTPGAGNFTFGIDSEATPDIKTKFSMDGDYLHANVQFDREAQKEYFIPIRISDSGVPRQSAVSILHLVIGDVNDNAMSEGSSRIFIYNYKGEAPETDIGRVFVDDLDDWDLEDKYFEWKDLPHDQFRLNPSTGMITMLVHTAEGEYDLSFVVTEDSMFVPRHSVDAYVTVVVRELPEEAVDKSGSIRFINVTKEEFISVPRDFQSPDALSLKDRLQLSLAKLFNTSVSNVDVFTVLQNENHTLDVRFSAHGSPYYAPEKLNGIVAQNQQRLENELDLQMLMVNIDECLIEKFKCEESCTNELHKSSVPYMIYSNTTSFVGVNAFVQAQCVCEAPLMRRCLNGGSPRYGENDVCDCIDGFTGPHCELVSVAFYGSGYAFYEPIAACNNTKISLEITPQIDQGLIMYLGPLNFNPLLAISDFLALELDNGYPVLTVDYGSGAIRIRHQHIKMVADRTYQLDIILQRTSIEMTVDNCRLSTCQTLGAPIGPNEFLNVNAPLQLGGTPVDLEQLGRQLNWTHVPNQKGFFGCIRNLTINEQTYNLGMPSVFRNIDSGCQQSVAVAFSFGIDRNFIIAIIVCLALLLIILLAVVVQKKQKNGWHEKDIDDIRETIINYEDEGGGERDTDYDLNVLRTQPFYEEKLYKDPHALQGNMRDPNDIPDIADFLGDKKENCDRDVGATTVDDVRHYAYEGDGNSDGSLSSLASCTDDGDLNFDYLSNFGPRFRKLADMYGEEPSDTDSNVDDDQGWRI
  stoichiometry N: ~4
